Laboratory results: the RNAGym collection of RNA variant scans (doi:10.7554/elife.80360)

B1: CPEB3 Ribozyme (parent)
chain: GGGGGCCACAGCAGAAGCGUUCACGUCGCGGCCCCUGUCAGAUUCUGGUGAAUCUGCGAAUUCUGCUGU

Variants of: B1
Test: self-cleavage, relative activity (ratio to wild type); higher = more cleavage; co-transcriptional

Variant | self-cleavage
G50U U55G | 0.8
G50U U55A | 0.882
U55A G58A | 0.927
C54U G65U | 0.809
A52U C66G | 0.695
G56U G65U | 0.468
G56U G65A | 0.47
A51G A52G | 0.925
C54G U61G | 0.436
C54G U61A | 0.569
A51C U61G | 0.551
A51C U61C | 0.796
U55C U64A | 0.567
C57A G58C | 0.397
U55G U62G | 0.381
U53C C54U | 0.819
A52G U67G | 1.02
A52G U67C | 0.944
G56A G58A | 0.905
G56A G58C | 0.971
A52G A60U | 0.506
C54G A59U | 0.47
A52C U69A | 0.977
U53A U67C | 0.975

Variant | self-cleavage
U53C C66A | 0.386
U53C C66U | 0.801
A52C G68C | 0.978
A52C G68A | 0.987
U55G C57A | 0.317
A51G U55A | 0.87
A52G G65C | 0.843
A52G G65U | 0.894
U53G C57G | 0.403
U53G G68C | 0.882
U53G G68U | 0.986
G56U G68A | 1.05
G56U G68C | 0.963
U55A U61C | 0.445
G56A U61G | 0.676
G56A U61C | 0.617
C57A U69C | 0.499
A52G C54G | 0.861
A51G A59C | 0.747
A51G A59G | 0.963
U53C U62C | 0.513
A51C G65U | 0.729
U53G C63G | 0.523
U53G C63U | 0.849

Variant | self-cleavage
U53G C63A | 0.494
A52U U69A | 1.03
A52C U62G | 0.806
C57A G68C | 0.5
U53G U67G | 0.894
U53G U67A | 0.779
U53G U67C | 0.901
A51U G58C | 0.975
A51U G58A | 0.941
U55C G65U | 0.495
U55C G65A | 0.588
G56U A60C | 0.368
U53A C63A | 0.673
C54U U61C | 0.861
A52G U61A | 0.89
A52G U61G | 0.861
C54A G68C | 0.942
C54A G68U | 0.963
G56C U64G | 0.533
U53C G58U | 0.965
C57A U61A | 0.428
C57A U61G | 0.402
U55C U67A | 0.932
U55C U67G | 0.826

Variant | self-cleavage
U55G C66G | 0.451
U55C C57G | 0.322
U55C C57U | 0.295
A52G U55C | 0.722
A52C C57U | 0.398
A52C C57A | 0.414
U55A C57G | 0.33
U55A C57U | 0.369
U55A C57A | 0.34
U55C A60G | 0.602
U55C A60U | 0.388
U53A A60C | 0.324
U53A A60U | 0.35
U53A A60G | 0.777
A51C U62G | 0.778
A51C U55C | 0.678
A51C U55G | 0.576
A52C U53G | 0.788
A51U G56A | 0.889
A51U G56U | 0.879
A51U G56C | 0.486
G56C G68C | 0.907
U53G C66U | 0.929
U53G C66G | 0.647

Variant | self-cleavage
A51U A52U | 0.96
C57G G68U | 0.365
A51G C66A | 0.875
A51G C66U | 0.972
A51G C66G | 0.84
A52U U64A | 0.87
G56A U69A | 1.03
C57U U64C | 0.556
C57U U64A | 0.392
U55A | 0.96
U55G | 0.881
U55C | 0.937
A52C A60G | 0.839
A52C A60C | 0.398
G50U U67A | 1.04
G50U U67G | 1.05
C54G G68U | 0.993
C57U A59C | 0.376
A51C U67C | 0.943
U55A U62C | 0.67
U55A U62A | 0.489
C54G G58A | 0.849
A51C A52U | 0.864
U55G A60U | 0.291

Variant | self-cleavage
U55G A60G | 0.552
U55A U69G | 1
A52U G56A | 0.909
A52U G56U | 0.848
G56C G65C | 0.57
G56C G65A | 0.459
G56A C66A | 0.702
A51G C57G | 0.322
A52U U61G | 0.741
C57G U62G | 0.448
C57G U62C | 0.288
A51U C54A | 0.633
G56U A59C | 0.514
G56U A59U | 0.672
G56U U67C | 0.894
G56U U67A | 0.943
G56U U67G | 0.945
U55C U62C | 0.592
U55C U62A | 0.445
U53C U61C | 0.342
U53C U61A | 0.577
U55G A59U | 0.394
U55A G65C | 0.491
U55A G65U | 0.421

Variant | self-cleavage
C57G | 0.354
C57U | 0.375
C57A | 0.346
U55G G68U | 0.874
G56U C57U | 0.322
G56U C57A | 0.291
C57U U62G | 0.327
C54G U55A | 0.745
C54G U55G | 0.407
U55A A60C | 0.343
G56C U62G | 0.59
A52G C57A | 0.343
U53G A59U | 0.576
U55G U69C | 0.962
C57U G65U | 0.375
U53C G56U | 0.399
C54A U62A | 0.546
A51C C57G | 0.38
A51C U64G | 0.841
G58A G65U | 0.743
G58A G65C | 0.619
A52U G65C | 0.549
A52U G65U | 0.664
